Measurements reported in patent publication US20200317768A1 (published 2020).
Changes are numbered by the printed parent chain.

T1: Cynomolgus monkey latent myostatin (cynomolgus monkey, UniProt Q95J86 25-266; Q95J86 267-375)
T1 construct: Latent form = complex of two propeptides and the mature dimer; also called Cyno latent myostatin
T1 sequence 1: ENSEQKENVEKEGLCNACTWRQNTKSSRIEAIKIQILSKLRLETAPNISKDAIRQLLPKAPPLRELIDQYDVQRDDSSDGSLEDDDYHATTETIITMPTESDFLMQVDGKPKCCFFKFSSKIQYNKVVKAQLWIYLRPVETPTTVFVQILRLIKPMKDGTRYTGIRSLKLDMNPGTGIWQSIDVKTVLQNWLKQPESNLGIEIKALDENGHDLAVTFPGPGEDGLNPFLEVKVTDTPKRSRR
T1 sequence 2: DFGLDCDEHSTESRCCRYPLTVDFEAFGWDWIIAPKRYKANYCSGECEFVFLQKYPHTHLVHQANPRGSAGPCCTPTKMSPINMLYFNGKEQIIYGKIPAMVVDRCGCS

T2: Mouse latent myostatin (mouse, UniProt O08689 26-267; O08689 268-376)
T2 construct: Latent form = complex of two propeptides and the mature dimer
T2 sequence 1: T1 sequence 1 with N2G, Q5R, K6E, T19A, K25R, S26Y, K59R, V107A, E140K, N173S
T2 sequence 2: T1 sequence 2

T3: Human latent myostatin (human, UniProt O14793 25-266; O14793 267-375)
T3 construct: also called human myostatin latent form
T3 sequence 1: T1 sequence 1 with A52V
T3 sequence 2: T1 sequence 2

T4: Human latent myostatin (human, UniProt O14793 25-266; O14793 267-375)
T4 construct: Biotinylated in the ELISAs; also called human myostatin latent form
T4 sequence 1: T1 sequence 1 with A52V
T4 sequence 2: T1 sequence 2

B1: MS_M103240H795-SG1/M103202L1045-SK1 (antibody, human IgG1, kappa)
heavy: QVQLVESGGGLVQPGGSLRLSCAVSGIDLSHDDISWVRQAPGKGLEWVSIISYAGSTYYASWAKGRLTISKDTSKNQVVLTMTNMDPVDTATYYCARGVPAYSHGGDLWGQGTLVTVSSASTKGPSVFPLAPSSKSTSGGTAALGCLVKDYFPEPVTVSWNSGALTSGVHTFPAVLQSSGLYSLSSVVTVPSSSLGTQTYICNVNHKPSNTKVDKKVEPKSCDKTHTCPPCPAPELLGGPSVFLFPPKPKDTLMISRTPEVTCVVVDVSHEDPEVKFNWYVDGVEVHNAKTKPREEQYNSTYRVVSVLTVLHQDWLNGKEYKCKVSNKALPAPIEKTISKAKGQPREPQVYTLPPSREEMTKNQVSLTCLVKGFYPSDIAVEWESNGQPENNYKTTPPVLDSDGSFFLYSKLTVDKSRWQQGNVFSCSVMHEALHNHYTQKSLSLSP
light: DIVMTQSPATLSLSPGERATLSCTTSQSVYHENWLSWFQQKPGQPPKLLIYWASTLAYGVPSRFSGSGSGTDFTLTISSLQPEDAATYYCAGGYGGGRYAFGQGTKVEIKRTVAAPSVFIFPPSDEQLKSGTASVVCLLNNFYPREAKVQWKVDNALQSGNSQESVTEQDSKDSTYSLSSTLTLSKADYEKHKVYACEVTHQGLSSPVTKSFNRGEC
notes: also called MS1032LO19-SG1
B2: MS_M103240H1246-SG1/M103202L1045-SK1 (antibody, human IgG1, kappa, V domains shown)
VH: QVQLVESGGGLVQPGGSLRLSCAVSGIDLSHEDISWVRQAPGKGLEWVSIISYAGSKYYASWAKGRLTISKDTSKNQVVLTMTNMDPVDTATYYCARGVPAYSHGGDLWGQGTLVTVSS
VL: DIVMTQSPATLSLSPGERATLSCTTSQSVYHENWLSWFQQKPGQPPKLLIYWASTLAYGVPSRFSGSGSGTDFTLTISSLQPEDAATYYCAGGYGGGRYAFGQGTKVEIKR
notes: also called MS1032LO25-SG1
B3: MS_M103205H1057-SG1/M103202L889-SK1 (antibody, human IgG1, kappa, V domains shown)
VH: QVTLKESGPVLVKPTETLTLTCTVSGIDLSHTDISWVRQAPGKGLEWVGIISYAGSKYKASWAKGRLTISKDTSKNQVVLTMTNMDPVDTATYYCARGVPAYSHGGDLWGQGTLVTVSS
VL: B2 VL with T25S, E32A
notes: also called MS1032LO12-SG1
B4: MS_M103205H1004-SG1/M103202L889-SK1 (antibody, human IgG1, kappa, V domains shown)
VH: B3 VH with T32D, K57M, K59Y, L108K
VL: B2 VL with T25S, E32A
notes: also called MS1032LO07-SG1
B5: MS_M103205H1047-SG1/M103202L889-SK1 (antibody, human IgG1, kappa, V domains shown)
VH: B3 VH with S56K, K59Y
VL: B2 VL with T25S, E32A
notes: also called MS1032LO11-SG1
B6: MS_M103205H1046-SG1/M103202L889-SK1 (antibody, human IgG1, kappa, V domains shown)
VH: B3 VH with S56K, K57T, K59Y, G65K
VL: B2 VL with T25S, E32A
notes: also called MS1032LO10-SG1
B7: MS_M103205H1795-SG1/M103202L1060-SK1 (antibody, human IgG1, kappa, V domains shown)
VH: B3 VH with T32D, K57T, K59Y
VL: B2 VL with T25S, Y30F, Y58W
notes: also called MS1032LO24-SG1
B8: MS_M103245H1233-SG1/M103202L1045-SK1 (antibody, human IgG1, kappa, V domains shown)
VH: B3 VH with T23K, T32E, G49S, K57T, K59Y
VL: B2 VL
notes: also called MS1032LO23-SG1
B9: Ab003 (M103205H009 / M103202L000) (antibody, human IgG1, kappa, V domains shown)
VH: B3 VH with H31S, T32Y, Y53H, K57T, K59Y, H104T
VL: B2 VL with T24Q, T25S, H31D, E32N, Y58S, R98L
notes: Histidine-substituted variant of MS1032LO00-SG1
B10: Ab007 (M103205H028 / M103202L008) (antibody, human IgG1, kappa, V domains shown)
VH: B3 VH with H31S, T32Y, K57T, K59Y
VL: B2 VL with T24Q, T25S, E32N, Y58S, R98L
notes: as for B9
B11: Ab005 (M103205H028 / M103202L000) (antibody, human IgG1, kappa, V domains shown)
VH: B3 VH with H31S, T32Y, K57T, K59Y
VL: B2 VL with T24Q, T25S, H31D, E32N, Y58S, R98L
notes: as for B9
B12: Ab004 (M103205H026 / M103202L000) (antibody, human IgG1, kappa, V domains shown)
VH: B3 VH with H31S, T32Y, K57T, K59Y, Y102H, H104T
VL: B2 VL with T24Q, T25S, H31D, E32N, Y58S, R98L
notes: as for B9
B13: Ab006 (M103205H000 / M103202L008) (antibody, human IgG1, kappa, V domains shown)
VH: B3 VH with H31S, T32Y, K57T, K59Y, H104T
VL: B2 VL with T24Q, T25S, E32N, Y58S, R98L
notes: as for B9

The binders below were run against T1, Cynomolgus monkey latent myostatin (assay: SPR 37C; KD pH 5.8 / KD pH 7.4).
Protocol: (§1) ProA/G (Pierce) was immobilized onto all flow cells of a CM4 chip using an amine coupling kit (GE Healthcare). All antibodies and analytes were prepared in ACES pH7.4 or pH5.8 buffer containing 20 mM ACES, 150 mM NaCl, 1.2 mM CaCl₂, 0.05% TWEEN®) 20, 0.005% NaN₃. […] Human, cyno, and mouse latent myostatin was injected at 3.125 to 50 nM prepared by two-fold serial dilution, followed by dissociation. The sensor surface was regenerated each cycle with 10 mM Glycine HCl pH1.5. Binding affinity was determined by processing and fitting the data to a 1:1 binding model using BIACORE® T200 Evaluation software, version 2.0 (GE Healthcare).

ratio of KD at pH 5.8/pH 7.4 | Binder
109 | B1
41 | B2
73 | B3
102 | B4
87 | B5
38 | B6
5 | B7
26 | B8

Each binder was assayed against T2, Mouse latent myostatin (assay: SPR 37C; KD pH 5.8 / KD pH 7.4).
Protocol: as §1

ratio of KD at pH 5.8/pH 7.4 | Binder
106 | B1
38 | B2
60 | B3
97 | B4
81 | B5
35 | B6
6 | B7
24 | B8

The binders below were run against T3, Human latent myostatin (assay: SPR 37C; KD pH 5.8 / KD pH 7.4).
Protocol: as §1

ratio of KD at pH 5.8/pH 7.4 | Binder
168 | B1
92 | B2
209 | B3
168 | B4
341 | B5
125 | B6
9 | B7
62 | B8

The binders below were run against T1, Cynomolgus monkey latent myostatin (assay: SPR (BIACORE T200) 37C, pH 7.4, antibody captured by ProA/G).
Protocol: as §1

Kd [pM] | Binder
326 | B1
340 | B2
492 | B3
339 | B4
502 | B5
419 | B6
189 | B7
299 | B8

What follows are binders tested against T2, Mouse latent myostatin in the same assay as above.
Protocol: as §1

Kd [pM] | Binder
271 | B1
259 | B2
413 | B3
319 | B4
362 | B5
334 | B6
176 | B7
266 | B8

Each binder was assayed against T3, Human latent myostatin in the same assay as above.
Protocol: as §1

Kd [pM] | Binder
273 | B1
276 | B2
407 | B3
275 | B4
419 | B5
351 | B6
164 | B7
260 | B8

The binders below were run against T1, Cynomolgus monkey latent myostatin (assay: SPR (BIACORE T200) 37C, pH 5.8, antibody captured by ProA/G).
Protocol: as §1

Kd [pM] | Binder
35600 | B1
14100 | B2
35800 | B3
34700 | B4
43500 | B5
16100 | B6
929 | B7
7710 | B8

These binders were tested against T2, Mouse latent myostatin in the same assay as above.
Protocol: as §1

Kd [pM] | Binder
28700 | B1
9880 | B2
24800 | B3
30800 | B4
29200 | B5
10900 | B6
1020 | B7
6400 | B8

These binders were tested against T3, Human latent myostatin in the same assay as above.
Protocol: as §1

Kd [pM] | Binder
45800 | B1
25500 | B2
84900 | B3
46200 | B4
143000 | B5
43800 | B6
1520 | B7
16100 | B8

Each binder was assayed against T4, Human latent myostatin (assay: SPR (BIACORE), additional dissociation phase at pH5.8 after dissociation at pH7.4, Scrubber 2.0 fit).
Protocol: Each amino acid in the CDRs was individually mutated to histidine using In-Fusion HD Cloning Kit (Clontech Inc, or Takara Bio company) according to the manufacturer's instructions. […] All histidine-substituted variants were evaluated by a modified BIACORE® assay as compared to that described above. Briefly, an additional dissociation phase at pH5.8 was integrated into the BIACORE® assay immediately after the dissociation phase at pH7.4. This is to assess the pH-dependent dissociation between antibody (Ab) and antigen (Ag) from the complexes formed at pH7.4 as opposed to the corresponding dissociation at pH5.8. The dissociation rate at pH5.8 buffer was determined by processing and fitting data using the Scrubber 2.0 (BioLogic Software) curve fitting software.
Antibodies with a combination of these mutations in the CDRs were then generated.

koff [s⁻¹] | Binder
0.00088 | B9
0.000415 | B10
7.63e-05 | B11
0.000186 | B12
8.58e-05 | B13
